Read-outs that look alike come from different tables or passages of the source.
Legend:
[1] = molecular target: the molecule itself; experiment: crystal structure
[2] = molecular target: the molecule itself; experiment: crystal structure; remark: listed apart in the source

B1: Native CalS11 (TDP-rhamnose 3'-O-methyltransferase), from E. coli (enzyme, Micromonospora echinospora)
chain: MDSGDGQDLRAFVHDSPEETETTQRLTKLLTNSPIPTEELVNNLPLFLRRHQMTDLLSMDALYRQVLDVPGVIMEFGVRFGRHLGTFAALRGVYEPYNPLRRIVGFDTFTGFPDVNDVDRVGPTAYQGRFAVPGGYPAYLKEVLDAHECSDFFGHVTQRSVLVEGDVRETVPRYLAENPQTVIALAYFDLDLYEPTKAVLEAIRPYLTKGSIVAFDELDNPKWPGENIAMRKVLGLDHAPLRLLPGRPAPAYLRWGD
stoichiometry N [1]: 10

B2: Selenomethionyl CalS11 (TDP-rhamnose 3'-O-methyltransferase), cell-free synthesized (enzyme, Micromonospora echinospora)
chain: DSGDGQDLRAFVHDSPEETETTQRLTKLLTNSPIPTEELVNNLPLFLRRHQMTDLLSMDALYRQVLDVPGVIMEFGVRFGRHLGTFAALRGVYEPYNPLRRIVGFDTFTGFPDVNDVDRVGPTAYQGRFAVPGGYPAYLKEVLDAHECSDFFGHVTQRSVLVEGDVRETVPRYLAENPQTVIALAYFDLDLYEPTKAVLEAIRPYLTKGSIVAFDELDNPKWPGENIAMRKVLGLDHAPLRLLPGRPAPAYLRWGD
modifications: selenomethionine in place of methionine
stoichiometry N [2]: 10
